Biological target: the molecule itself
Assay: in vitro recrystallisation (self-assembly) seen by electron microscopy (REM, TEM); FPLC-purified mSbsC-EGFP, denatured in Gua-HCl, dialysed against dH2O over night; assembled structures negatively stained with 3% ammonium molybdate pH 7.2

B1: mSbsC-EGFP fusion protein (mature S-layer protein SbsC, aa 31-1099, of Geobacillus stearothermophilus ATCC 12980 fused to EGFP), from E. coli (natural protein, UniProt O68840 31-1099, looked up)
chain: ATDVATVVSQAKAQMKEAYYTYSHTVTETGQFPDIKDVYAAYNKAKQAYANAVAVVNKAGGAKKDAYLADLQAIYETYVFKANPKSGEARVATYIDAYNYATKLDKMRQELKAAVDAKDLKKAEELYHKISYELKTRTVILDRVYGQSTRELLRSTFKADAQALRDRLIYDITVAMKAREAQDAVKAGNLDKAKAALDQVNQYVSKVTDAFKAELQKAAQDAKAAYEAALTPKVESVSAIDSTSFKVTFTKPVDKATAIPKNFSITLKGTETKLYPKSVEVSESGLTATVTLYDTLVDGKTYTVVTSGLKDTAGKEFETSTNEFTYNKPVPASITFNFNKLPEDSAVDLTKYVTVKDAAGNVIKSGFELEFTSSEKLTQGKFINTTGKKSVIVNATVKGTNVTTGNVILAVEDEKAAEVSELKLTKDNKEVVTLYANGNAFDKDGNQISSGTLTLTAKFKDQYGNELTGKVAGTDYTFESLNPEVLVVAPDGSVTPIVPGTALVKVKYGEVTKTIPVTVKANPVLETIAVDSTGVSVAKGQKATFKVTLKDQYGNKFTGNVNVTSDKTETATVSVSNSGIGQSEYTVTVNGVAEGSTTITIKSGTKEVKVPVNVVAGGPVANYQIKVLDDGKIDKSATESPANNDVQLKVYAVDANGNIVGDITNDVTITSEATDTNGVIVNASKSTANGDTVYVITDNGSKKVGKETLTVKLGTVTLGTVDVEVIDTTLKATVVTKKADLIELDAADNGDALAKLLANLDIKDQNGNPMVDSAATPNTNEKLQALKSVLSGIVSSDTSVIGSVSNVDNLKDDASISGLAVKKAGTVTLTLVFNEDSKIAPIAITVKAPAATQDGVTVTGLDLVPGVTGVGKTKFTATDKIKSGHKLYYAVDDSAVPAPAVGTTRNSTKFANEITVGTTEVAANAGQIITVIEVDSSDRVVGYKTFTVEAADLSVAADKTGFTATVTPTGGNQVTTGKTLLAVSDLANGHKLYAAAAGSSAAAAPVKGIAYTDTTVRTTYGTEVTSGTVEVDAQDGQHISIIEVDENGKVVGYKDYTITGIQIGTKSAS
notes: S-layer protein SbsC of Geobacillus stearothermophilus ATCC 12980, mature part, aa 31-1099 (without the 30 aa N-terminal secretion signal); an ATG initiation codon was introduced 5' of the reading frame by the primer; A Met from the introduced ATG precedes residue 31; A two-residue linker (Leu-Glu, from the XhoI site) stands between SbsC and the EGFP reading frame (720 bp, from the Clontech …)
Question: Does B1 bind?
Answer: binds

Reference: article PMC1262761, “Expression and cytosolic assembly of the S-layer fusion protein mSbsC-EGFP in eukaryotic cells” (Microbial Cell Factories, 2005)
